In US12201679B2, “Epitope-targeted peptide immunostimulants” (priority 2019, dated 2025):
“Also recorded” adds a separate entry of the source. Ends that are not written are not given here.

Legend:
[1] = molecular target: full-length recombinant MrkA protein (Klebsiella pneumoniae, UniProt P12267); format: binding; conditions: ratio of ELISA signals, FIG. 4B
From the text: HPraGly is present before X1 in each peptide and Az4 follows X5 in each peptide.

[2] = Isocratic point, elution from C18 prep-scale column; format: physicochemical
Description: PCC compounds were purified on a Waters Autopurification system, which isolated compounds based on MS peaks corresponding to protonated [M+1H]^+ and [M+2H]^2+, and/or sodium adducts [M+Na]^+ and [M+2Na]^2+. The isocratic points of PCCs were determined based on the elution of the compound from a C18 prep-scale column. Synthetic epitopes were either purified on the Waters Autopurification System, or by semi-preparative HPLC and then using matrix-assisted laser desorption/ionization mass spectroscopy to identify fractions with the desired m/z ratio. The resulting peptides were lyophilized, the yield determined by mass difference or UV-visible absorbance, and resuspended at a concentration of up to 10 mM peptide in DMSO. Peptides were stored at −80° C. before thawing for each use.

MrkA protein = MrkA protein (Klebsiella pneumoniae, UniProt P12267); experiment: Sandwich ELISA, MrkA binding in mouse sera; conditions: MrkA 250 nM in 10 and 100% mouse sera
From the text: By comparison, the addition of polyarginine tags reduced the IP to near 40% without substantial loss in MrkA avidity (three leftmost data points in FIG. 4B).

[3] = test system: K. pneumoniae (strains BAA 1705 & 2146); experiment: Whole-cell ELISA, biotinylated PCC, multidrug-resistant K. pneumoniae; format: cell-based, Klebsiella pneumoniae; conditions: whole-cell ELISA, FIG. 5C
Description: Detection of the binding of biotinylated PCCs to bacterial surface was performed as follows. 10^8 bacteria from a culture grown overnight were used for each test. […] After washing thrice with PBS to remove unbound PCCs, bacteria were incubated with Streptavidin-HRP (1:1000) for 1 h at 37° C. Bacteria were washed thoroughly and the TMB reagent was added until visible coloration was observed. The reaction was quenched using 2N H2SO4 and absorbance was measured at 450 nm.

[4] = test system: K. pneumoniae cells (strain BAA 1705); experiment: Gentamicin protection assay: phagocytosis and opsonophagocytic killing (OPK) by macrophages; format: cell-based, Klebsiella pneumoniae; conditions: 1 h, FIG. 7B
Description: It also tested whether DNP-conjugated EPIs could promote the opsonophagocytic killing (OPK) of K. pneumoniae by macrophages. This was tested by using an OPK assay. Briefly, K. pneumoniae cells were treated with EPI and then anti-DNP antibody before being exposed to macrophages for either 6 or 24 hours. During this incubation period, macrophages that recognize K. pneumoniae cells will phagocytose them, and phagocytosed bacteria will remain viable for up to 6 hours, but within 24 hours are rendered inviable by OPK. Thus, macrophages were isolated after 6 and 24 hours of incubation with K. pneumoniae, lysed them, and plated and grew the lysate, which yielded bacterial colonies that reflect the phagocytosis (at 6 hrs) or OPK (at 24 hrs) of bacteria.
Given that cy(LLFFF)-DNP (SEQ ID NO:5) recruits antibodies to K. pneumoniae surfaces, it was expected that K. pneumoniae opsonized in this manner would be more susceptible to phagocytosis by macrophages. AR-PCC-driven phagocytosis and OPK were quantified by a gentamicin protection assay, as depicted in FIG. 7A. For this assay, K. pneumoniae cells (strain BAA 1705) were treated with cy(LLFFF)-DNP (SEQ ID NO:5), opsonized by anti-DNP antibodies, and then incubated with murine bone-marrow-derived macrophages (BMDMs). BMDMs were subsequently exposed to a solution containing gentamicin, to which K. pneumoniae strain BAA 1705 is susceptible, to kill any extracellular bacteria. Phagocytosed bacteria remain viable inside BMDMs for at least 1 h, yet are rendered inviable after 24 h by OPK (FIG. 13). Macrophages harvested at 1 h and 24 h were lysed and plated to generate bacterial colonies, which were enumerated to quantify phagocytosis and OPK.
Klebsiella pneumoniae BAA1705 was treated with DNP-PCCs followed by incubation with anti-DNP antibody, as described above in the “Cell-Based ELISAs” section. These opsonized bacteria were then used to infect BMDMs at a multiplicity of infection of 50 for 0.5 h at 37° C. Bacteria were then washed by using RPMI 1640 Media and BMDMs were left in cell culture medium containing gentamicin (100 μg/ml). After 1 h and 24 h BMDMs were washed to remove gentamicin and intracellular bacteria were harvested by lysing BMDMs in RPMI media containing 0.2% Triton X 100. Bacterial CFUs were enumerated by plating onto LB agar. Bacterial counts at 1 h indicated the degree of opsonization while those at 24 h served as a measure of microbicidal activity of macrophages. For these measurements, anti-MrkA antibody and K. pneumoniae antiserum were used at dilutions of 5 μg/mL each.

MrkA protein, sequence (P12267 23-202): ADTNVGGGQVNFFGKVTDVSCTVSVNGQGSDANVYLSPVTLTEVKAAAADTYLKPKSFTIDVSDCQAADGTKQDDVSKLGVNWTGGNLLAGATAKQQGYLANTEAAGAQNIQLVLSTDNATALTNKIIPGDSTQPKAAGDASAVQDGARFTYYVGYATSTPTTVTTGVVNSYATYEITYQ
full-length recombinant MrkA protein, sequence (P12267 23-202): as above

cy(LLFFF)+R6 (LLFFFRRRRRR; also: cyclic over residues 1-5, ring closure not given here)
stronger affinity to MrkA over cy(LLFFF) [1]: 22%
isocratic point (IP) [2]: ~40%
reduction (improvement) in IP versus cy(LLFFF) [2]: ~35%
binding to MrkA protein in mouse sera (MrkA protein): binds MrkA protein in the context of sera; also recorded: bound MrkA protein in solutions of 10 and 100% mouse sera
binding selectivity towards MrkA-expressing K. pneumoniae cells versus E. coli and S. typhimurium [3]: similarly high selectivity
phagocytosis at 1 h, DNP-tagged AR-PCC plus anti-DNP (words) [4]: also enhanced phagocytosis
phagocytosis at 1 h, DNP-tagged AR-PCC plus anti-DNP (words) ([4]; listed as cy(LLFFF)-R6): comparable to that of cy(LLFFF)-DNP
